Assay [1] concerns the target mouse serum albumin (mouse) (UniProt P07724). In words: SPR (Biacore), purified construct.
In assay [2] the target is human serum albumin (human) (UniProt P02768). In words: SPR (BIAcore).

B1: FabB-648dsFv (2xG4S) (bispecific antibody, part only; not given: anti-OX40 Fab and linkers, V domains shown, not shown: another chain or arm of the molecule; a dimerising Fc or GST; small tags and cut ends)
VH: EVQLVESGGGLVQPGGSLRLSCAVSGFSLSRYAMTWVRQAPGKCLEWIGTITTGGNTNYANWAKGRFTISKDSTTVYLQMNSLRAEDTAVYYCARGGYVSYADATELSLWGQGTLVTVSS
VL: DIVMTQSPSTLSASVGDRVTITCQASQSIGSRLAWYQQKPGKAPKLLIYYASTVASGVPSRFKGSGSGTEFTLTISSLQPDDFATYYCQSYDYSSSSSYAFGCGTKVEIK
modifications: Engineered interchain disulphide between VH Cys44 and VL Cys100 (Kabat; linear position 103 of the VL).
Broadly, the Kd is the equilibrium constant for the complex coming apart. Lower therefore signals higher affinity. B1: the dissociation constant (Kd) in assay [1] was 59.6 nM.

B2: FabB-645dsFv (S3×G4S), Fv heavy mutation T100aA (bispecific antibody, part only; not given: anti-OX40 Fab and linkers, V domains shown, not shown: another chain or arm of the molecule; small tags and cut ends)
VH: EVQLLESGGGLVQPGGSLRLSCAVSGIDLSNYAINWVRQAPGKCLEWIGIIWASGTTFYATWAKGRFTISRDSTTVYLQMNSLRAEDTAVYYCARTVPGYSAAPYFDLWGQGTLVTVSS
VL: DIVMTQSPSSVSASVGDRVTITCQSSPSVWSNFLSWYQQKPGKAPKLLIYEASKLTSGVPSRFKGSGSGTDFTLTISSLQPEDFATYYCGGGYSSISDTTFGCGTKVEIK
modifications: Interchain disulfide between VH Cys44 and VL Cys100 (Kabat) of the dsFv
A word on the koff: it is a measure of how fast the partners let go of each other. Lower therefore signals a long-lived complex. A word on the kon: it is the second-order rate constant of association. A lower kon goes with slow association. In assay [2], B2 yielded a dissociation constant (Kd) of 51.6 nM, a koff of 0.0186 s⁻¹ and a kon of 360000 M⁻¹ s⁻¹.

The values are drawn from US20110184152A1.
